This note sets out measurements from patent publication US20240317847A1 (Bayer, published 2024).

As usually defined, the Kd is the constant that tells how readily two partners part at equilibrium. A higher Kd goes with lower affinity.

For experiment [1], the target named is T1, murine IL-11 (Invigate, e.g., lot #C210819-09) (mouse, UniProt P47873 22-199).
T1 construct: Bought protein; biotinylated where captured on streptavidin plates; also called mIL-11; mIL11
T1 sequence: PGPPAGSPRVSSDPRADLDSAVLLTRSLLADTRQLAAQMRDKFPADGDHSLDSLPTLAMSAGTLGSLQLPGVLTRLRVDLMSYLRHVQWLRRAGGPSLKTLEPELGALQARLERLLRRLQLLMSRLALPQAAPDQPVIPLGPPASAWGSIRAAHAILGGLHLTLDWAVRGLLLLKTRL
Put plainly: SPR, Biacore 8K; antibody captured on anti-human IgG Fc chip, IL-11 analyte 0-50 nM, 1:1 fit. The procedure:
(§1) Antibody binding affinity to hIL-11 (Invigate, Germany, e.g., lot #C121021-19) and mIL-11 (Invigate, Germany, e.g., lot #C210819-09) was detected using Biacore 8K. Each antibody was captured on an anti-human IgG Fc antibody immobilized CM5 sensor chip (GE). hIL-11 and mIL-11 at different concentrations (0, 5, 15.82 and 50 nM) in 1×HBS-EP+ (pH 7.4) (GE healthcare) were injected over the sensor chip at a flow rate of 30 μL/min for an association phase of 120 s, followed by 200 s dissociation phase. The chip was then regenerated by 10 mM Glycine, pH 1.5 after each binding cycle.
(§2) The sensorgrams of blank surface and buffer channel were subtracted from the test sensorgrams. The experimental data was fitted by 1:1 model using Langmiur analysis. Molecular weight of 19.3 kDa was used to calculate the molar concentration of human and mouse IL-11.
For orientation: In SPR one partner is held on a chip, and binding of the other changes the refractive index at the surface.

Experiment [2] has as its target T2, human IL-11 (Invigate, e.g., lot #C121021-19) (human, UniProt P20809 22-199).
T2 construct: Bought protein; also called hIL-11; hIL11
T2 sequence: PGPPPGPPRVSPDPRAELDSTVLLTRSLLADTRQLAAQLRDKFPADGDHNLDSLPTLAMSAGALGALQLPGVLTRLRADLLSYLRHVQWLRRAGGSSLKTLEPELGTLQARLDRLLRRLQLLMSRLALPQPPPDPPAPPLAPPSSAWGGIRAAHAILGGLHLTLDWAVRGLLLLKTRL
The experiment is described as above. The procedure:
as §1, §2

B1: TPP-31295 (antibody, human IgG4, V domains shown)
VH: EVQLLESGGGLVQPGGSLRLSCAASGFTFSHYDMNWLRQAPGKGLEWVGVISYDGSNKYYADFVKGRFTISRDNSKNTLYLQMNSLRAEDTAVYYCARTPGSHFDYWGQGTLVTVSS
VL: QSVLTQPPSASGTPGQRVTISCSGSSSNIGNNAVNWYQQLPGTAPKLLIYYDDLLPSGVPDRFSGSKSGTSASLAISGLRSEDEADYYCSAWDDSLNGVVFGGGTKLTVL
notes: consecutive numbering; also called VH-F59Y
Turning to B1, the Kd in experiment [1] is 33 nM; in experiment [2], 20 nM.

B2: TPP-31300 (antibody, human IgG4, V domains shown)
VH: EVQLLESGGGLVQPGGSLRLSCAASGFTFSHYDMNWLRQAPGKGLEWVGVISYEGSNKFYADFVKGRFTISRDNSKNTLYLQMNSLRAEDTAVYYCARTPGSHFDYWGQGTLVTVSS
VL: QSVLTQPPSASGTPGQRVTISCSGSSSNIGNNAVNWYQQLPGTAPKLLIYYDDLLPSGVPDRFSGSKSGTSASLAISGLRSEDEADYYCSAWDDSLNGVVFGGGTKLTVL
notes: consecutive numbering; also called VH-D54E
For B2, the Kd in experiment [1] came out at 3 nM; in experiment [2], 3.8 nM.

B3: TPP-31301 (antibody, human IgG4, V domains shown)
VH: EVQLLESGGGLVQPGGSLRLSCAASGFTFSHYDMNWLRQAPGKGLEWVGVISYEGSNKFYADFVKGRFTISRDNSKNTLYLQMNSLRAEDTAVYYCARTPGSHFDYWGQGTLVTVSS
VL: QSVLTQPPSASGTPGQRVTISCSGSSSNIGNNAVNWYQQLPGTAPKLLIYYDDLLPSGVPDRFSGSKSGTSASLAISGLRSEDEADYYCSAWDDSLQGVVFGGGTKLTVL
notes: consecutive numbering; also called VH-D54E / VL-N97Q
With B3, the equilibrium dissociation constant (Kd) in experiment [1] was determined as 2.9 nM; in experiment [2] it was 3.6 nM.

B4: TPP-31302 (antibody, human IgG4, V domains shown)
VH: EVQLLESGGGLVQPGGSLRLSCAASGFTFSHYDMNWLRQAPGKGLEWVGVISYEGSNKFYADFVKGRFTISRDNSKNTLYLQMNSLRAEDTAVYYCARTPGSHFDYWGQGTLVTVSS
VL: QSVLTQPPSASGTPGQRVTISCSGSSSNIGNNAVNWYQQLPGTAPKLLIYYDDLLPSGVPDRFSGSKSGTSASLAISGLRSEDEADYYCSAWDDSLSGVVFGGGTKLTVL
notes: consecutive numbering; also called VH-D54E/VL-N97S
For B4, the Kd amounted to 3.2 nM in experiment [1] and 3.8 nM in experiment [2].

B5: TPP-31297 (antibody, human IgG4, V domains shown)
VH: EVQLLESGGGLVQPGGSLRLSCAASGFTFSHYDMNWLRQAPGKGLEWVGVISYDGSNKFYADFVKGRFTISRDNSKNTLYLQMNSLRAEDTAVYYCARTPGSHFDYWGQGTLVTVSS
VL: QSVLTQPPSASGTPGQRVTISCSGSSSNIGNNAVNWYQQLPGTAPKLLIYYDDLLPSGVPDRFSGSKSGTSASLAISGLRSEDEADYYCSAWDDSLQGVVFGGGTKLTVL
notes: consecutive numbering; also called VL-N97Q
Turning to B5, the Kd in experiment [1] was found to be 14 nM; in experiment [2] it was 8.7 nM.

B6: TPP-31298 (antibody, human IgG4, V domains shown)
VH: EVQLLESGGGLVQPGGSLRLSCAASGFTFSHYDMNWLRQAPGKGLEWVGVISYDGSNKFYADFVKGRFTISRDNSKNTLYLQMNSLRAEDTAVYYCARTPGSHFDYWGQGTLVTVSS
VL: QSVLTQPPSASGTPGQRVTISCSGSSSNIGNNAVNWYQQLPGTAPKLLIYYDDLLPSGVPDRFSGSKSGTSASLAISGLRSEDEADYYCSAWDDSLSGVVFGGGTKLTVL
notes: consecutive numbering; also called VL-N97S
For B6, the Kd in experiment [1] amounted to 13 nM; in experiment [2], 9.3 nM.

B7: TPP-31299 (antibody, human IgG4, V domains shown)
VH: EVQLLESGGGLVQPGGSLRLSCAASGFTFSHYDMNWLRQAPGKGLEWVGVISYDGSNKFYADFVKGRFTISRDNSKNTLYLQMNSLRAEDTAVYYCARTPGSHFDYWGQGTLVTVSS
VL: QSVLTQPPSASGTPGQRVTISCSGSSSNIGNNAVNWYQQLPGTAPKLLIYYDDLLPSGVPDRFSGSKSGTSASLAISGLRSEDEADYYCSAWDDSLNAVVFGGGTKLTVL
notes: consecutive numbering; also called VL-G98A
Consider B7, for which the Kd was 16 nM in experiment [1] and 18 nM in experiment [2].

B8: TPP-31296 (antibody, human IgG4, V domains shown)
VH: EVQLLESGGGLVQPGGSLRLSCAASGFTFSHYDMNWLRQAPGKGLEWVGVISYDGSNKFYADSVKGRFTISRDNSKNTLYLQMNSLRAEDTAVYYCARTPGSHFDYWGQGTLVTVSS
VL: QSVLTQPPSASGTPGQRVTISCSGSSSNIGNNAVNWYQQLPGTAPKLLIYYDDLLPSGVPDRFSGSKSGTSASLAISGLRSEDEADYYCSAWDDSLNGVVFGGGTKLTVL
notes: consecutive numbering; also called VH-F63S
Regarding B8, the figures for the Kd in experiment [1] and in experiment [2] were 12 nM and 9.4 nM, respectively.
